Test results: US10398755

Molecular target: T1, mouse CLU with C-terminal (His)6 (CLU-His), recombinant secreted clusterin, Q06890
T1 chain: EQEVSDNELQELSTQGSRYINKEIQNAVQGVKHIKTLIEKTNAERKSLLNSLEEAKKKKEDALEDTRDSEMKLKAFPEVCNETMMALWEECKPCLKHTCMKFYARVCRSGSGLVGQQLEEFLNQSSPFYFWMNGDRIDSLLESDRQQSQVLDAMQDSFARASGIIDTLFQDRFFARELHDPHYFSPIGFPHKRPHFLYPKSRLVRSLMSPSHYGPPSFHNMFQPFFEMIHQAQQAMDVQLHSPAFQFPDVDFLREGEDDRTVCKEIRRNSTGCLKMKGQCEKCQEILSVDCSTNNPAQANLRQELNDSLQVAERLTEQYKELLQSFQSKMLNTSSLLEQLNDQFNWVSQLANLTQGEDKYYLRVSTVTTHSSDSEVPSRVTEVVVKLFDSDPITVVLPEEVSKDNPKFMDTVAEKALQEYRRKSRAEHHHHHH

B1: MMP-9, propeptide-cleaved (APMA-processed active MMP-9) (protein)
chain: FQTFKGLKWDHHNITYWIQNYSEDLPRDMIDDAFARAFAVWGEVAPLTFTRVYGPEADIVIQFGVAEHGDGYPFDGKDGLLAHAFPPGAGVQGDAHFDDDELWSLGKGVVIPTYYGNSNGAPCHFPFTFEGRSYSACTTDGRNDGTPWCSTTADYDKDGKFGFCPSERLYTEHGNGEGKPCVFPFIFEGRSYSACTTKGRSDGYRWCATTANYDQDKLYGFCPTRVDATVVGGNSAGELCVFPFVFLGKQYSSCTSDGRRDGRLWCATTSNFDTDKKWGFCPDQGYSLFLVAAHEFGHALGLDHSSVPEALMYPLYSYLEGFPLNKDDIDGIQYLYGRGSKPDPRPPATTTTEPQPTAPPTMCPTIPPTAYPTVGPTVGPTGAPSPGPTSSPSPGPTGAPSPGPTAPPTAGSSEASTESLSPADNPCNVDVFDAIAEIQGALHFFKDGWYWKFLNHRGSPLQGPFLTARTWPALPATLDSAFEDPQTKRVFFFSGRQMWVYTGKTVLGPRSLDKLGLGPEVTHVSGLLPRRLGKALLFSKGRVWRFDLKSQKVDPQSVIRVDKEFSGVPWNSHDIFQYQDKAYFCHGKFFWRVSFQNEVNKVDHEVNQVDDVGYVTYDLLQCP
digestion of CLU by active MMP-9 (SDS/PAGE, Coomasie staining; gelatin as known substrate): the density of CLU protein, separated as a and 6 subunits, changed little, whereas most high molecular weight gelatin disappeared upon incubation with MMP-9, indicating that CLU is not a substrate for MMP-9 in vitro
